In paper PMC3565045 one finds stoichiometry N data, which are given here for 1 substance.

The target in this experiment is Cryptococcus neoformans acetate kinase (Cryptococcus neoformans). The experiment can be described thus: crystal structure.

For “Cryptococcus neoformans acetate kinase (enzyme)”, the stoichiometry N worked out at 2.

For orientation: stoichiometry N means the number of molecules, sites or subunits per partner or assembly.
